{"source": "paper PMC6851296", "about": "“Atomic-resolution crystal structures of the immune protein conglutinin from cow reveal specific interactions of its binding site with N-acetylglucosamine” (The Journal of Biological Chemistry, 2019)", "target": "the molecule itself", "test": "SEC; Superdex-75 HR 10/300, Tris buffer with 10 mM EDTA, 1 ml/min; calibrated with alcohol dehydrogenase, BSA, carbonic anhydrase and cytochrome C; nondissociating conditions"}
{"protein": "recombinant fragment of bovine conglutinin consisting of the CRD and neck regions (rfBC, residues 199-351 of native conglutinin) (domain or fragment, vector-derived first five residues (GLAEV in conglutinin); bovine conglutinin, neck plus carbohydrate recognition domain, the C-terminal 153 residues Asn-199 to Phe-351; also called trimeric recombinant neck plus CRD conglutinin fragment; recombinant homotrimeric fragment of conglutinin) GSAEANALKQRVTILDGHLRRFQNAFSQYKKAVLFPDGQAVGEKIFKTAGAVKSYSDAEQLCREAKGQLASPRSSAENEAVTQMVRAQEKNAYLSMNDISTEGRFTYPTGEILVYSNWADGEPNNSDEGQPENCVEIFPDGKWNDVPCSKQLLVICEF", "values": [{"measurement": "stoichiometry N", "result": 3}]}
